Data published in article PMC9717613 (Nature catalysis, 2022).

Target: the molecule itself
Assay: crystal structure

B1: HsKYNase_66-Ct6XHis (HsKYNase_66 with a C-terminal 6X-Histidine Tag) (enzyme, human)
chain: MEPSSLELPADTVQRIAAELKCHPTDERVALHLDEEDKLRHFRECFYIPKIQDLPPVDLSLVNKDEDAIYFNGNSLGLQPKMVKTYLEEELDKWAKIAIYGWFEGDSPWIHYDESIVGLMKDIVGANEKEIVLMNTLTVNLHLLMLSFFKPTPKRYKILLEAKAFPSDHYAIESQLQLHGLNIEESMRIIKPREGEETLRIEDILEVIEKEGDSIAVILFSGIHYYTGQHFNIPAITKAGQAKGCYVGFDLAHAVGNVELYLHDWGVDFACWCGYKYLNSSPGGIAGAFIHEKHAHTIKPALVGWFGHELSTRFKMDNKLQLIPGVCGFRCSTPPILLVCILHASLEIFKQATMKALRKKSVLLTGYLEYLIKHNYGKDKAATKKPVVNIITPSHVEERGCQLTLTFNVPNKDVFQELEKRGVVCDKRNPNGIRVAPVPLYNSFHDVYKFTNLLTSILDSAETKN
modifications: PLP cofactor bound as internal aldimine
  stoichiometry N: 2
